The text below walks through data of US8436140B2, “Natriuretic peptide-mediated imaging of atherosclerotic plaque” (priority 2008, dated 2013).

Positions of bridges follow the written chain, without caps; N, C: chain ends. Residues, ends and D or L forms follow the SMILES beside them. *: point of attachment. DOTA = O=C(O)CN1CCN(CC(=O)O)CCN(CC(=O)*)CCN(CC(=O)O)CC1

Series [1] concerns extracellular matrix proteins such as collagen and proteoglycans. The experiment in a line: 3T MRI of atherosclerotic lesion with plaque-targeting contrast agent. The series is classed as in vivo, rabbit. To be noted: 0.5 μmol/kg, 1 h before scan, TP 1. The method, then: The presence of atherosclerotic lesions in the rabbits was confirmed by 3T MRI 1 hour after administration of a non-receptor specific plaque-targeting contrast agent ([…], 0.5 μmol/kg body weight, Schering AG, Germany). […] For scanning, the rabbit was placed supine into a plastic bed. Three micropipette tubes filled with 0.5 mL Gadofluorine M (Bayer Schering Pharma AG, Berlin) served as fiducial markers, and were taped into position on the bed. At the beginning of the PET study, these tubes were drained of the Gadofluorine by syringe, and refilled with 0.5 mL of ^64Cu to serve as the PET fiducials. These helped to “co-localize” the plaque regions between the two image modalities.
In this example, a MR T1 W coronal image of a typical atherosclerotic lesion in the femoral artery of a rabbit 4 weeks after air dessication-induced injury (TP 1) is shown (FIG. 6). Gadofluorine M (0.5 μmol/kg body weight) was given 1 h before the scan. […] MRI confirmed the presence of a thickened neointima in the injured vessel characteristic of the atherosclerotic-like plaques induced in this model.

A short description of the next series: in vivo. Conditions: rabbit, iv, 20 MBq, total radioactivity. The method, then: The blood clearance studies were performed in normal rabbits (n=4) to evaluate the pharmacokinetics of tracer in vivo. About 20 MBq of ^64Cu-DOTA-C-ANF was injected intravenously into the left ear of rabbit, and blood sample (0.2 mL) was drawn from the contralateral ear over the period of 1 h (1 min, 3 min, 5 min, 10 min, 20 min, 40 min and 60 min). The activity of the blood samples were counted in gamma counter and presented in percent injected dose per gram (ID %/g). […] (FIG. 7). This tracer therefore is a highly sensitive means by which to detect a trace amount of ^64Cu-DOTA-C-ANF in the atherosclerotic animal model

With `CC(C(=O)NCC(=O)NCCCC[C@H](NC(=O)CO[C@H]1O[C@H](CO)[C@@H](O)[C@H](O)[C@@H]1O)C(=O)N1CCN(S(=O)(=O)C(F)(F)C(F)(F)C(F)(F)C(F)(F)C(F)(F)C(F)(F)C(F)(F)C(F)(F)F)CC1)N1CCN(CC(=O)O)CCN(CC(=O)O)CCN(CC(=O)O)CC1` (some centres unmarked) [Gadofluorine M], in series [1], the “contrast agent at injured femoral artery (MR T1W image)” value was “binding” and the “contrast agent uptake in control artery (MR T1W image)” value is on record as “weak uptake”.
Consider `CC[C@H](C)[C@@H]1NC(=O)[C@H](CCCNC(=N)N)NC(=O)[C@H](CC(=O)O)NC(=O)[C@H]([C@@H](C)CC)NC(=O)[C@H](CCCNC(=N)N)NC(=O)CNC(=O)CNC(=O)[C@H](Cc2ccccc2)NC(=O)[C@@H](NC(=O)[C@H](CO)NC(=O)[C@H](CO)NC(=O)[C@H](CCCNC(=N)N)NC(=O)CN2CCN(CC(=O)O)CCN(CC(=O)O)CCN(CC(=O)O)CC2)CSSC[C@@H](C(N)=O)NC(=O)[C@H](C)NC(=O)CNC1=O` [^64Cu-DOTA-C-ANF, metal not drawn] ({DOTA}-RSSCFGGRIDRIGAC-NH2; disulfide 4-15), for which, in “in vivo”, the tissue uptake (as a rule, the percentage of the injected dose found per gram of tissue) at 1 min was 0.22 %ID/g; the tissue uptake at 0.05 h was found to be 0.1 %ID/g; the tissue uptake at 1 h was 0.02 %ID/g.
